1 molecule from patent publication US20210155697A1 (UNITY BIOTECHNOLOGY, published 2021) can be followed below.

In test [1] the target is T1, human full-length Tie2 on cells (human, UniProt Q02763 23-1124). The test can be described thus: cell-based or functional assay.
In test [2] the target is T1, human full-length Tie2 on cells. Briefly: flow cytometry on HUVEC; Apparent Kd (EC50 binding). The source says: (§1) Briefly, expression plasmids containing the full-length Tie2 coding sequence for each species were used to transfect primary human endothelial cells (HUVECs) as well as human embryonic kidney (HEK293) cells. A stable cell population was selected by treating transfectants with puromycin antibiotic over the course of 2 weeks and single cell clones were generated using fluorescence activated cell sorting. Upon confirmation of cell surface expression of these Tie2 variants, cell lines were used to determine apparent Kd (EC50) values of anti-Tie2 antibodies on the various Tie2 proteins. […] Cells were labeled with decreasing concentrations of anti-Tie2 antibodies #1, #2, and #3 (10, 5, 2.5, 1, […], 0.63, 0.31, and 0.16 ug/mL) or non-specific hIgG1 antibody (10 ug/mL), followed by labeling with a rabbit anti-human IgG antibody conjugated to an Alexa Fluor 488 fluorophore (20 ug/ml). EC50 values were generated using ForeCyt™ software.
(Flow cytometry measures light scatter and fluorescence of single cells or particles in a stream.)

The target in test [3] is T2, cynomolgus monkey full-length Tie2 on HEK293 cells (cynomolgus monkey, UniProt G7PS68 23-1124).
T2 construct: whole, on cells; also called HEK293/Cyno Tie2; HEK/cyno Tie2
Briefly: flow cytometry on HEK293/Cyno Tie2 cells, mAb at 10 ug/mL.
Excerpt: as §1

Test [4] concerns the target T1, human full-length Tie2 on cells. The test can be described thus: flow cytometry on HEK293/Human Tie2 cells, mAb at 10 ug/mL. The arrangement: unit not given here.
Excerpt: as §1
Target sequence in this assay (Q02763 23-1124 limits assumed): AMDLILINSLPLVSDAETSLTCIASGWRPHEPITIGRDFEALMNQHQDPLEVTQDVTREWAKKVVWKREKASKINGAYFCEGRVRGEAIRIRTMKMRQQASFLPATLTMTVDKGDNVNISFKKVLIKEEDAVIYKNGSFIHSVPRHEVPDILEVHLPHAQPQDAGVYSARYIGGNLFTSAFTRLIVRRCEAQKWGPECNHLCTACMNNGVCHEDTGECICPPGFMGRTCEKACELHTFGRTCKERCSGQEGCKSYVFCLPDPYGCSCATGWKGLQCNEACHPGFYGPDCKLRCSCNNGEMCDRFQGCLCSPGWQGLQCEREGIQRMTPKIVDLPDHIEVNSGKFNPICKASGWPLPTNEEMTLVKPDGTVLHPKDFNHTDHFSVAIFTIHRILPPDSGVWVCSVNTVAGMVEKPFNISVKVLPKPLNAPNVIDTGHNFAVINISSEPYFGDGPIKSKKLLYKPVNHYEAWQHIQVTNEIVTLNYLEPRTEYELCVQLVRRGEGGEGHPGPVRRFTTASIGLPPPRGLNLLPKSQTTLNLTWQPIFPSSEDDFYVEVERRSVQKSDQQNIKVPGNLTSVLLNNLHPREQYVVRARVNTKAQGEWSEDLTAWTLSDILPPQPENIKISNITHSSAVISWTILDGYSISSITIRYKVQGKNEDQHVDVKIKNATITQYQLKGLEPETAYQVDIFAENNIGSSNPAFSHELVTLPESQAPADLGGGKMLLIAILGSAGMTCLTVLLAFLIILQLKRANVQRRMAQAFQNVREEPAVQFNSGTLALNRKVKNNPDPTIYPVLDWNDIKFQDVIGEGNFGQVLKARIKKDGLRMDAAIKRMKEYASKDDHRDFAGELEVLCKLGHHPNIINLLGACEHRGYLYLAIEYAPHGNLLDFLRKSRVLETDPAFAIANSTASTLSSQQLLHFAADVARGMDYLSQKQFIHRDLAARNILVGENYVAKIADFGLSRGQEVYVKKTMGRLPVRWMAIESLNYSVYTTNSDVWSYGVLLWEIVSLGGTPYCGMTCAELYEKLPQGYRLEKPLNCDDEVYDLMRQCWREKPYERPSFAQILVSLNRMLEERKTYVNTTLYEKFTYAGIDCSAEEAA

Test [5] addresses T3, murine full-length Tie2 on HEK293 cells (mouse, UniProt Q02858 23-1122).
T3 construct: whole, on cells; also called HEK293/Murine Tie2; HEK/mTie2
Briefly: flow cytometry on HEK293/Murine Tie2 cells, mAb at 10 ug/mL.
Excerpt: as §1
Target sequence in this assay (Q02858 23-1122): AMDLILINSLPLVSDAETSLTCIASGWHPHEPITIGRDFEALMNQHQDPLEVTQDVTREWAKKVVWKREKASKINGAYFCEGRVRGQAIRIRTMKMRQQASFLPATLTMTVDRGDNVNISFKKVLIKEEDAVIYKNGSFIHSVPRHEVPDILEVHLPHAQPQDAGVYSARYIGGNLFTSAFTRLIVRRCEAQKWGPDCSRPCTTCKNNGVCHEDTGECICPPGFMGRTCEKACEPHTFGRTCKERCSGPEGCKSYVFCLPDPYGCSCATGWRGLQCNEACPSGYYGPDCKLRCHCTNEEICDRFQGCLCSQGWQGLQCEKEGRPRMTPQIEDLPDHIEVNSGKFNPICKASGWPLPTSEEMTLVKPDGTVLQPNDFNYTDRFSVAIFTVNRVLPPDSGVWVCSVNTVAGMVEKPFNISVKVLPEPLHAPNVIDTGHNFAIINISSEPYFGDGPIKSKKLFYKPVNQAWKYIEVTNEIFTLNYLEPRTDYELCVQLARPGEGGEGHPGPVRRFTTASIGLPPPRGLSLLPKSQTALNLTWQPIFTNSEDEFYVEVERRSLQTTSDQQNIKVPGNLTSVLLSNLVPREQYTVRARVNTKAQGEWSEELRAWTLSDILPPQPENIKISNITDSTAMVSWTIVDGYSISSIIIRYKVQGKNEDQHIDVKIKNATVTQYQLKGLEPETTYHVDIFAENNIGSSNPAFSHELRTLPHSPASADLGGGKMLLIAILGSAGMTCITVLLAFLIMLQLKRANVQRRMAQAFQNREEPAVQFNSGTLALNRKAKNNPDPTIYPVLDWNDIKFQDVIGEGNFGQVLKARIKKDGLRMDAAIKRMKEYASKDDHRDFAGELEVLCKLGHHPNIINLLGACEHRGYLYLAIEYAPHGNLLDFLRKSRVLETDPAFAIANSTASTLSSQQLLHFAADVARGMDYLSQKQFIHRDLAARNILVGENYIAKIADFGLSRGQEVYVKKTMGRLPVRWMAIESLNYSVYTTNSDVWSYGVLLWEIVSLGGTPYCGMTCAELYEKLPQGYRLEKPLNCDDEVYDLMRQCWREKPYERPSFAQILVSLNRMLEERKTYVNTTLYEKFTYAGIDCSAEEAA

Test [6] deals with T3, murine full-length Tie2 on HEK293 cells. Briefly: flow cytometry on HEK/mTie2 cells; Apparent Kd (EC50 binding).
Excerpt: as §1

Test [7] concerns the target T4, rabbit full-length Tie2 on HEK cells (rabbit).
T4 chain: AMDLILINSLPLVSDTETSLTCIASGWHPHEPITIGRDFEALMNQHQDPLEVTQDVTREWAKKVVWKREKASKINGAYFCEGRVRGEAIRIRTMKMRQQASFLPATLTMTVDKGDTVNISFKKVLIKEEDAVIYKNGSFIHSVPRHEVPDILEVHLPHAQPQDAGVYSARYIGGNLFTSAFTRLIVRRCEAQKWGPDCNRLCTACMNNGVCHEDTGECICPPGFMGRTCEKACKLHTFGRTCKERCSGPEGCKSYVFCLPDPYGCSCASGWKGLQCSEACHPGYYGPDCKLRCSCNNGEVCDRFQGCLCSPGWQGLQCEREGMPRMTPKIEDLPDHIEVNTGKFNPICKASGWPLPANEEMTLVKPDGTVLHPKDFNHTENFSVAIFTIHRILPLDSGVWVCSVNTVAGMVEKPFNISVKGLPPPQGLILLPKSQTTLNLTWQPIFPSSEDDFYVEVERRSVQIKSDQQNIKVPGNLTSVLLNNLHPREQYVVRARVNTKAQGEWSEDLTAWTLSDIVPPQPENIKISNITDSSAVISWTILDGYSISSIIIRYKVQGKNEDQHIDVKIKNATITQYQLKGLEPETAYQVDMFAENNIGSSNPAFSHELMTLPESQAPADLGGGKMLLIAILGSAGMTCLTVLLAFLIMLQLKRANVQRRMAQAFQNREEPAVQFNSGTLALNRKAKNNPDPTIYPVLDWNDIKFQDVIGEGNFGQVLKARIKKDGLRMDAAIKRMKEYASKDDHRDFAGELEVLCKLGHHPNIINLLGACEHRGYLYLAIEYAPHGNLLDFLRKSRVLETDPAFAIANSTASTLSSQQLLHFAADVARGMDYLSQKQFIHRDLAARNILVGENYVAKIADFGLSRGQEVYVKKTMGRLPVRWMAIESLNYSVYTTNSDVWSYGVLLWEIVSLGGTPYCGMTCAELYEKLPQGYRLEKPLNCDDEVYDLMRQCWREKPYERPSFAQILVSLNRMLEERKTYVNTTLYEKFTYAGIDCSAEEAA
The test can be described thus: flow cytometry on HEK/RbTie2 cells; Apparent Kd (EC50 binding).
Excerpt: as §1

Test [8] has as its target T1, human full-length Tie2 on cells. Briefly: flow cytometry on HEK/huTie2 cells; Apparent Kd (EC50 binding).
Excerpt: as §1

Test [9] deals with T5, rat full-length Tie2 on HEK cells (rat, UniProt A0ABK0L6J5 19-1116).
T5 construct: whole, on cells; also called HEK/ratTie2
Briefly: flow cytometry on HEK/ratTie2 cells; Apparent Kd (EC50 binding).
Excerpt: as §1

The target in test [10] is T2, cynomolgus monkey full-length Tie2 on …. The test can be described thus: flow cytometry on HEK/cyno Tie2 cells; Apparent Kd (EC50 binding).
Excerpt: as §1

One may read the EC50 as the midpoint of the concentration-response curve.

B1: human anti-Tie2 antibody #3 (antibody, V domains shown)
VH: DVQLVESGGGVVRPGESLRLSCTASGFTFDSYGMSWVRQAPGKGLEWVSSINVGDNTYYADSVRGRFIISRDSSRNTLYLQMNSLTAEDTAVYYCANWNSFFDYWGLGTLVTVSS
VL: EIVLTQSPGTLSLSPGEIATLSCRASQNVRSDLAWYQQKPGQAPRLLIYDASNRATGIPDRFSGSGSGTDFTLTISSLQSEDFAVYYCQQYSNWPPLTFGGGTKVEIK
notes: also called Ab #3; Antibody Clone # 3
Turning to B1, the “EC50 of pAkt relative to total Akt in HUVEC cells (western blot, quantitative fluorescence imaging)” value in test [1] worked out at 0.45 nM. Also, the EC50 in [2] came out at 1.7 nM; in test [6] it was 6.3 nM; in test [7] it was 3.3 nM; in test [8], 1.9 nM; in test [9], 4.6 nM; in test [10], 3.7 nM. The figures for the “Cross-Reactivity Screen (mAb at 10 ug/mL)” value in test [3], in test [4] and in [5] were 40.2, 40.2 and 32.5, respectively.
